Source: PMC3568127

Molecular target: NRP1 (neuropilin 1) expressed from an adenovirus on DU145 cells (UniProt O14786)
Experiment: cell based binding displacement assay (biotinylated ligand, streptavidin-HRP, A450); DU145 cells infected with Ad.NRP1 in 96-well plates; various concentrations of competitor then 1 nM bt-VEGF-A165; binding medium with or without 0.1% BSA; 2 h at room temperature; apparent affinity judged by IC50

Sequence of NRP1 (neuropilin 1) expressed from an adenovirus on DU145 cells (O14786 22-923): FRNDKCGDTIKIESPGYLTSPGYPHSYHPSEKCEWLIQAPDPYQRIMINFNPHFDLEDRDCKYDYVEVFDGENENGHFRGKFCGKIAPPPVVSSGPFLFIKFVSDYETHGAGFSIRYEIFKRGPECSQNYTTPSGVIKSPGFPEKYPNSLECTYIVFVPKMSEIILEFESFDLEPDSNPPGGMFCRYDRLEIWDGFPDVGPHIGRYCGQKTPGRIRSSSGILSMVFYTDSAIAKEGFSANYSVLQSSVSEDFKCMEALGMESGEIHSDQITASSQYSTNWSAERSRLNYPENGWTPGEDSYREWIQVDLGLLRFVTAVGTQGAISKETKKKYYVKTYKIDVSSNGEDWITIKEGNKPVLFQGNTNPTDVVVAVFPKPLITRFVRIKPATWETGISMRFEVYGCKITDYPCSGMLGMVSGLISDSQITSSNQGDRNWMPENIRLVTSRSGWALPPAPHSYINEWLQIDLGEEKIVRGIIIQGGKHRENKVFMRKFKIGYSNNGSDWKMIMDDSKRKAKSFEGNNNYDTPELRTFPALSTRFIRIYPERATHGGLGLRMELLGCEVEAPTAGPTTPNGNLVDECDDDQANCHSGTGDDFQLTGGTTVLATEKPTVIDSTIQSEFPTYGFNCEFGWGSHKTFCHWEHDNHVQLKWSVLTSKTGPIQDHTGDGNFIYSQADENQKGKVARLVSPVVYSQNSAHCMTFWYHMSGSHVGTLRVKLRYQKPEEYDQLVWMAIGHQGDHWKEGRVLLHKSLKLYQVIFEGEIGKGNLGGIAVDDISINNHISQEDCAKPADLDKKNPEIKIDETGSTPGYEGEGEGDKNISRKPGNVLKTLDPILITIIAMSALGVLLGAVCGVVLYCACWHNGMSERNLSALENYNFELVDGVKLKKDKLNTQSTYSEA

- IC50: 0.1 to 0.2 µM
Substance: VEGF-A165-HBD (the forms of the cell based assay: with and without the His6-tag)
